According to US20150203577A1 (Chugai, published 2015):
Numbering of substitutions follows the chain as printed.

T1: mouse FcγRII (mouse, UniProt P08101 30-210)
T1 construct: also called mFcγRII; mFcgRII
T1 sequence: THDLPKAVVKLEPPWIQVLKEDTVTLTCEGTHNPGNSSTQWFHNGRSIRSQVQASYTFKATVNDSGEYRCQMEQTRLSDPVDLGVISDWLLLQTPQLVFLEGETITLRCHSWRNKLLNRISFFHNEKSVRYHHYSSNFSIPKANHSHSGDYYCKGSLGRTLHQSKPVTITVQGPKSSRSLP

T2: mouse FcγRIII (mouse, UniProt P08508 31-215)
T2 construct: also called mFcγRIII; mFcgRIII
T2 chain: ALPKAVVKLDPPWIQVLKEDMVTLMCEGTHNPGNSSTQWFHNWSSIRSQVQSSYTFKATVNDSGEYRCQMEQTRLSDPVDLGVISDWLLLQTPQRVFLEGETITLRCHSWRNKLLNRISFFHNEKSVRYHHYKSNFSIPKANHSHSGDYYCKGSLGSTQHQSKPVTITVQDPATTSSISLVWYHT

B1: H237-MB110/MRAL-k0 (antibody, mouse IgG1, kappa)
heavy: QVQLQESGPGLVKPSETLSLTCAVSGHSISHDHAWSWVRQPPGEGLEWIGFISYSGITNYNPSLQGRVTISRDNSKNTLYLQMNSLRAEDTAVYYCARSLARTTAMDYWGEGTLVTVSSAKTTPPSVYPLAPGSAAQTNSMVTLGCLVKGYFPEPVTVTWNSGSLSSGVHTFPAVLQSDLYTLSSSVTVPSSTWPSETVTCNVAHPASSTKVDKKIVPRDCGCKPCICTVPEVSDVFIFPPKPKDVLTITLTPKVTCVVVDISKDDPEVQFSWFVDDVEVHTAQTQPREEQFNSTFRSVSELPIMHQDWLNGKEFKCRVNSAAFPAPIEKTISKTKGRPKAPQVYTIPPPKEQMAKDKVSLTCMITDFFPEDITVEWQWNGQPAENYKNTQPIMDTDGSYFVYSKLNVQKSNWEAGNTFTCSVLHEGLHNHHTEKSLSHSPGK
light: not shown
notes: copies: 2 + 2
B2: MB019 (antibody, mouse IgG1, kappa)
heavy: B1 heavy with V230A, D235S
light: not shown
notes: copies: 2 + 2
B3: MB020 (antibody, mouse IgG1, kappa)
heavy: B1 heavy with V230D, D235S
light: not shown
notes: copies: 2 + 2
B4: MB021 (antibody, mouse IgG1, kappa)
heavy: B1 heavy with V230E, D235S
light: not shown
notes: copies: 2 + 2
B5: MB025 (antibody, mouse IgG1, kappa)
heavy: B1 heavy with V230I, D235S
light: not shown
notes: copies: 2 + 2
B6: MB027 (antibody, mouse IgG1, kappa)
heavy: B1 heavy with V230L, D235S
light: not shown
notes: copies: 2 + 2
B7: MB028 (antibody, mouse IgG1, kappa)
heavy: B1 heavy with V230M, D235S
light: not shown
notes: copies: 2 + 2
B8: MB030 (antibody, mouse IgG1, kappa)
heavy: B1 heavy with V230P, D235S
light: not shown
notes: copies: 2 + 2
B9: MB031 (antibody, mouse IgG1, kappa)
heavy: B1 heavy with V230Q, D235S
light: not shown
notes: copies: 2 + 2
B10: MB034 (antibody, mouse IgG1, kappa)
heavy: B1 heavy with V230T, D235S
light: not shown
notes: copies: 2 + 2
B11: MB037 (antibody, mouse IgG1, kappa)
heavy: B1 heavy with P231A, D235S
light: not shown
notes: copies: 2 + 2
B12: MB038 (antibody, mouse IgG1, kappa)
heavy: B1 heavy with P231D, D235S
light: not shown
notes: copies: 2 + 2
B13: MB039 (antibody, mouse IgG1, kappa)
heavy: B1 heavy with P231E, D235S
light: not shown
notes: copies: 2 + 2
B14: MB040 (antibody, mouse IgG1, kappa)
heavy: B1 heavy with P231F, D235S
light: not shown
notes: copies: 2 + 2
B15: MB045 (antibody, mouse IgG1, kappa)
heavy: B1 heavy with P231L, D235S
light: not shown
notes: copies: 2 + 2
B16: MB052 (antibody, mouse IgG1, kappa)
heavy: B1 heavy with P231V, D235S
light: not shown
notes: copies: 2 + 2
B17: MB053 (antibody, mouse IgG1, kappa)
heavy: B1 heavy with P231W, D235S
light: not shown
notes: copies: 2 + 2
B18: MB054 (antibody, mouse IgG1, kappa)
heavy: B1 heavy with P231Y, D235S
light: not shown
notes: copies: 2 + 2
B19: MB093 (antibody, mouse IgG1, kappa)
heavy: B1 heavy with S234E, D235S
light: not shown
notes: copies: 2 + 2
B20: MB102 (antibody, mouse IgG1, kappa)
heavy: B1 heavy with S234P, D235S
light: not shown
notes: copies: 2 + 2
B21: MB103 (antibody, mouse IgG1, kappa)
heavy: B1 heavy with S234Q, D235S
light: not shown
notes: copies: 2 + 2
B22: MB111 (antibody, mouse IgG1, kappa)
heavy: B1 heavy with D235E
light: not shown
notes: copies: 2 + 2
B23: MB118 (antibody, mouse IgG1, kappa)
heavy: B1 heavy with D235M
light: not shown
notes: copies: 2 + 2
B24: MB121 (antibody, mouse IgG1, kappa)
heavy: B1 heavy with D235Q
light: not shown
notes: copies: 2 + 2
B25: MB126 (antibody, mouse IgG1, kappa)
heavy: B1 heavy with D235Y
light: not shown
notes: copies: 2 + 2
B26: MB129 (antibody, mouse IgG1, kappa)
heavy: B1 heavy with D235S, V236E
light: not shown
notes: copies: 2 + 2
B27: MB132 (antibody, mouse IgG1, kappa)
heavy: B1 heavy with D235S, V236H
light: not shown
notes: copies: 2 + 2
B28: MB139 (antibody, mouse IgG1, kappa)
heavy: B1 heavy with D235S, V236Q
light: not shown
notes: copies: 2 + 2
B29: MB143 (antibody, mouse IgG1, kappa)
heavy: B1 heavy with D235S, V236W
light: not shown
notes: copies: 2 + 2
B30: MB161 (antibody, mouse IgG1, kappa)
heavy: B1 heavy with D235S, F237W
light: not shown
notes: copies: 2 + 2
B31: MB162 (antibody, mouse IgG1, kappa)
heavy: B1 heavy with D235S, F237Y
light: not shown
notes: copies: 2 + 2
B32: MB188 (antibody, mouse IgG1, kappa)
heavy: B1 heavy with D235S, I262L
light: not shown
notes: copies: 2 + 2
B33: MB199 (antibody, mouse IgG1, kappa)
heavy: B1 heavy with D235S, S263A
light: not shown
notes: copies: 2 + 2
B34: MB251 (antibody, mouse IgG1, kappa)
heavy: B1 heavy with D235S, F292W
light: not shown
notes: copies: 2 + 2
B35: MB261 (antibody, mouse IgG1, kappa)
heavy: B1 heavy with D235S, S294L
light: not shown
notes: copies: 2 + 2

target: T1, mouse FcγRII; assay: SPR Biacore T200, KD ratio

Binder	Relative mFcγRII-binding activity (MB110 = 1)	relative mFcγRII-binding activity (mIgG1 = 1)
B1	1 fold	12.3 fold

Target: T2, mouse FcγRIII
Assay: SPR Biacore T200, KD ratio

Binder	Relative mFcγRIII-binding activity (MB110 = 1)	relative mFcγRIII-binding activity (mIgG1 = 1)
B1	1 fold	4 fold

target: T1, mouse FcγRII; assay: SPR Biacore 4000, KD ratio
Method: (§1) Each altered antibody was analyzed for its interaction with each Fcγ receptor prepared above using Biacore T100 (GE Healthcare Japan Corp.), Biacore T200 (GE Healthcare Japan Corp.), Biacore A100, or Biacore 4000. The running buffer used was HBS-EP+ (GE Healthcare Japan Corp.). The assay temperature was set to 25° C. The sensor chips used were chips prepared by immobilizing Protein L (ACTIGEN or BioVision) onto Series S Sensor Chip CM5 (GE Healthcare Japan Corp.) or Series S Sensor Chip CM4 (GE Healthcare Japan Corp.) by the amine coupling method.
(§2) In order to calculate the KD value of each altered antibody for FcγR, kinetic analysis was conducted according to the following method: first, the antibody of interest was captured onto any of these chips and allowed to interact with mFcγR diluted with a running buffer. For the obtained sensorgram, the assay results were globally fit into the 1:1 Langmuir binding model using Biacore Evaluation Software to calculate an association rate constant ka (L/mol/s) and a dissociation rate constant kd (1/s). From these values, the dissociation constant KD (mol/L) was calculated.

Binder	relative mFcγRII-binding activity (mIgG1 = 1)
B1	15.1 fold
B2	2.7 fold
B3	7.97 fold
B4	8.52 fold
B5	1.19 fold
B6	1.88 fold
B7	1.83 fold
B8	5.26 fold
B9	1.99 fold
B10	1.25 fold
B11	1.54 fold
B12	3.15 fold
B13	3.27 fold
B14	1.47 fold
B15	1.2 fold
B16	1.36 fold
B17	1.36 fold
B18	1.75 fold

Binder	relative mFcγRII-binding activity (mIgG1 = 1)
B19	2.09 fold
B20	2.62 fold
B21	1.27 fold
B22	5.01 fold
B23	1.74 fold
B24	1.48 fold
B25	1.58 fold
B26	6.19 fold
B27	2.12 fold
B28	1.54 fold
B29	7.42 fold
B30	1.47 fold
B31	1.4 fold
B32	1.16 fold
B33	1.48 fold
B34	1.49 fold
B35	2.11 fold

Target: T2, mouse FcγRIII
Assay: SPR Biacore 4000, KD ratio
Method: as §1, §2

Binder	relative mFcγRIII-binding activity (mIgG1 = 1)
B1	4.45 fold
B2	1.44 fold
B3	2.84 fold
B4	3.58 fold
B5	1.06 fold
B6	1.55 fold
B7	1.42 fold
B8	2.27 fold
B9	1.48 fold
B10	1.12 fold
B11	1.22 fold
B12	1.37 fold
B13	1.29 fold
B14	1.17 fold
B15	0.9 fold
B16	1.2 fold
B17	1.02 fold
B18	1.11 fold

Binder	relative mFcγRIII-binding activity (mIgG1 = 1)
B19	0.56 fold
B20	2.37 fold
B21	1.05 fold
B22	1.11 fold
B23	0.99 fold
B24	0.94 fold
B25	0.94 fold
B26	2.42 fold
B27	1.39 fold
B28	1.2 fold
B29	6.32 fold
B30	1.13 fold
B31	1.2 fold
B32	1 fold
B33	1.19 fold
B34	1.23 fold
B35	1.81 fold
